# Test results published in US20240025995A1.
# How the values were obtained:
# [1] = target: human FcγRIIb on CHOK1 cells overexpressing FcγRIIb (human) (UniProt P31994); experiment: flow cytometry on CHOK1 cells overexpressing FcγRIIb; detection with anti-human kappa antibody
# [2] = target: human FcγRIIa (R131) on CHOK1 cells overexpressing FcγRIIa (R131) (human) (UniProt P12318); experiment: flow cytometry on CHOK1 cells overexpressing FcγRIIa (R131); detection with anti-human kappa antibody
# UniProt P12318, sequence (P12318 34-317 H167R): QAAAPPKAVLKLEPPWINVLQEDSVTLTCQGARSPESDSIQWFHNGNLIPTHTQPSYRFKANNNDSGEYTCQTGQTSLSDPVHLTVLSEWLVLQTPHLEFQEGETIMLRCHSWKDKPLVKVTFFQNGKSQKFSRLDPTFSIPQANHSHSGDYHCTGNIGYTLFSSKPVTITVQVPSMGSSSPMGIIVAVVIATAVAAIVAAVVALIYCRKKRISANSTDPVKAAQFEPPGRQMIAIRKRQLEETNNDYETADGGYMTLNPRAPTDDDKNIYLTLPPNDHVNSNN
# UniProt P31994, sequence (P31994 43-310): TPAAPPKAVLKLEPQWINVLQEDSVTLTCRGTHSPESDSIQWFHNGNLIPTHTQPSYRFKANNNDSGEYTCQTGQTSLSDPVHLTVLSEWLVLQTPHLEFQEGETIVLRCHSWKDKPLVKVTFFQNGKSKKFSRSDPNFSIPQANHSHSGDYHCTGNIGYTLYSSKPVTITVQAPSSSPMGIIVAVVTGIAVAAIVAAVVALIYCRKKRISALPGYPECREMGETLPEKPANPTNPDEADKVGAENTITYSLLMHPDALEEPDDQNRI
Log EC50 [1],Log EC50 [2],Substance
-0.0779,–,anti-LAG3 SELF (from UniProt P01857 1-330) (antibody)
4.42,3.9,anti-RSV AAA (from UniProt P01857 1-330) (antibody)
